± gives the uncertainty stated by the source.
Test: amyloid nucleation score (Sup35N fusion, yeast selection) (log enrichment); library NNK3; higher = more nucleation; inactive = no reads after selection
Summary of the method: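 The nucleation score is a DiMSum log enrichment of output over input reads, centred on the mode score of non-aggregating sequences. Sequences under 100 input reads were excluded, and reads came from Illumina sequencing of plasmid inserts. Psi-negative yeast expressing Sup35N fused to peptides of 20 random codons were induced with 100 μM copper sulfate for 24 hours and grown 7 days at 30°C on medium lacking adenine and uracil. Random libraries had three technical output replicates.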

Amyloid nucleation score, 1.48 ± 0.14:
TDYQNWFNVEINKF

Amyloid nucleation score, -0.673 ± 1.1:
TALWYSYFSTKNDMSLQFAP

Amyloid nucleation score, 1.23 ± 0.16:
TERVCVCVTFVLW

Amyloid nucleation score, -0.259 ± 0.8:
TFLELSIMYGRVTCNSLY

Amyloid nucleation score, 0.164 ± 0.56:
SYSSDWVLLGGMFFAKY

Amyloid nucleation score, inactive:
SYMISPAVGKDRDM
SYMLNSCSWRTK
SYPGRLYSSGYDCVYSNRSR
SYQLCACK
SYRLSYLYPSTHHYLLNCLL
SYSVSCTDGWSIVFMFSHIA
SYVCWDIFIGQRSNAALSTI
SYVWYRNGM
SYWLQSPYDTESMSGFLLQI
SYWYACGKYADNSMER
SYYLRLYEVTWFSRFGFDRS
SYYSSDKMIVSVGLLKRDAK
TAFTGIRTWHCHCKRSYSLG
TAQTNPGVYYS
TATYKSYCTL
TCHDGHGAGRTVSGVFGGVA
TCKVVCRFFHIRACMLGVIL
TCMHC
TCRHPIPASLARSAAAVLVW
TCRMVRGSMMDSAVV
TCSFECGACTRQVDAVCQLG
TCTCGVFSD
TCTGCTSVTL
TCYFVYTRFFWGDRESKSTF
TCYITA
TDIFKSFIRNMNLVWFRVMT
TDKFWLIGDSTTSWIEVVFN
TDMMMFICE
TDPFLTCK
TDSCKGVWIMVGFALFLMWS
TDTLCDWYLPNRRWIKDNEW
TELVLRAVSSLGVLVIFTTS
TENCEFFTNPPARPYG
TFCFPWL
TFDSYPFVKGGISWPNMKYL
TFEEFESTARLGFHERGDFY
TFFWTRCDIVGREWVSNTVN
TFHSM
TFLNFSVIGVTSLGTDRAYD
TFLVALSYFVSLGYGSSQSM
TFSVYADETSKRTVFTVMIW
TFVHAYTGWMEFVV
TFYVLRPTYSITRNGAPRPL
TGLNGLRVLYSMRRPGKV
TGRVLGYGLL
TGSFIIRISSSRTMLW
TGVFDFRRVVLLVSHSEV
TGVSIKFTSSKYYSVTSATT
THRSRKSDPNRQSFIKCGHS
THRVTTRCLLRLLRWIRM
THTTAS
TIHSRMGIVLYFFAIDCVR
TIMAFIIAIRSLDRCQSSGM
TISSSLKRMWDIVFSLCNNI
TIVYSLT
TIYVLCGRTIRWFVLNPLQE
TKCLRVVKRTTYGSQEFLRK
TKCTYKLGYTLYTGVKDVVR
TKDRFFLKHTGRIMLGLRR
TKHPLYM

Amyloid nucleation score, 0.558 ± 0.16:
TISPFLINMFWLSCTLMSQE

Amyloid nucleation score, 0.898 ± 0.16:
TFRLILILRTSI

Amyloid nucleation score, 1.55 ± 0.12:
TFFFTVLG

Amyloid nucleation score, 2.29 ± 0.08:
SYYVNVRYWSITCPIWGLSD

Amyloid nucleation score, -0.097 ± 0.69:
TFWVFIAQKRCSGGKYGCMC

Amyloid nucleation score, 0.004 ± 0.26:
SYYFMGHLVFSVQTCIYTQG

Amyloid nucleation score, 2.6 ± 0.078:
TCCSVLLIKVSSNEGD

Amyloid nucleation score, 0.366 ± 0.42:
TCTYCRFRLSSLVSW

Amyloid nucleation score, 1.12 ± 0.11:
TFFFVVGHSNDEVYSCVKTV

Amyloid nucleation score, 1.02 ± 0.093:
SYYVICGTLMIIVVYFSSYN

Amyloid nucleation score, 1.03 ± 0.24:
TCIGNNPMPYFTFCITHNAM

Amyloid nucleation score, 0.207 ± 0.23:
TIFVVCIRIFVWFLCYGSDP

Amyloid nucleation score, -0.581 ± 1.4:
TKGNCSAHPRRL

Amyloid nucleation score, 3.36 ± 0.064:
TFCMLCYQNSIFTVYNSEYQ

Amyloid nucleation score, -0.002 ± 0.9:
TGSNRSYIFFCWSRFNVMFG

— the supplement of paper PMC12042874
